In a protein production outcome set (Wang et al. 2014):

Test: label from the status in PepcDB records
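Note: failed if final PepcDB status was selected cloned or expressed and not failed if soluble or beyond.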

Row | Sequence | protein production
1 | MDYKLIITLFTFCVAAFSGMKAAEAASFSVVADGLNNARGLSFGLDGALYVTEAGTGGNGACIPSVTGQGGSLCYGTSSTVLKIENGVTSPVLTGLPSIALADGTGAGGARDIQFDTTGKPYILMGYGANPTFRNNLGNIDLGKIIAPDFQTNSWTSIADLANYELVNNPDGGDINSNPLGFFIDGNNLIAVDAGANNLLSVQTNGTNLQTLSVFPQEILTNPVFPPSGTPSTEPGQVPTPTAPPPPQLPIQVVPSSVVRGPDGAYYVSQFTGFPFPEGGAKIYRVGTDGETTIYADGFTQLTDLEFDSAGNLYALQYANQSAWKGNFDGSLIKIAADGTRTTILSGNGLESPNALAIAPNGEIYITNRSDRPGLGQIIRVENSQAVPEPNSAFSVFLLGAFGVAWLRKSTSRVCLNQKP | failed
2 | TTKKRVFHFGKGKSEGNKTMKELLGGKGANLAEMASIGLSVPPGFTVSTEACQQYQDAGCALPAGLWAEIVDGLQWVEEYMGATLGDPQRPLLLSVRSGAAVSMPGMMDTVLNLGLNDEVAAGLAAKSGERFAYDSFRRFLDMFGNVVMDIPRSLFEEKLEHMKESKGLKNDTDLTASDLKELVGQYKEVYLSAKGEPFPSDPKKQLELAVLAVFNSWESPRAKKYRSINQITGLRGTAVNVQCMVFGNMGNTSGTGVLFTRNPNTGEKKLYGEFLVNAQGEDVVAGIRTPEDLDAMKNLMPQAYDELVENCNILESHYKEMQDIEFTVQENRLWMLQCRTGKRTGKSAVKIAVDMVNEGLVEPRSAIKMVEPGHLDQLLHPQFENPSAYKDQVIATGLPASPGAAVGQVVFTAEDAEAWHSQGKAAILVRAETSPEDVGGMHAAVGILTERGGMTSHAAVVARGWGKCCVSGCSGIRVNDAEKLVTIGGHVLREGEWLSLNGSTGEVILGKQPLSPPALSGDLGTFMAWVDDVRKLKVLANADTPDDALTARNNGAQGIGLCRTEHMFFASDERIKAVRQMIMAPTLELRQQALDRLLPYQRSDFEGIFRAMDGLPVTIRLLDPPLHEFLPEGNIEDIVSELCAETGANQEDALARIEKLSEVNPMLGFRGCRLGISYPELTEMQARAIFEAAIAMTNQGVQVFPEIMVPLVGTPQELGHQVTLIRQVAEKVFANVGKTIGYKVGTMIEIPRAALVADEIAEQAEFFSFGTNDLTQMTFGYSRDDVGKFIPVYLAQGILQHDPFEVLDQRGVGELVKFATERGRKARPNLKVGICGEHGGEPSSVAFFAKAGLDYVSCSPFRVPIARLAAAQVLV | not failed
3 | MMYPYVRLFMEMRRARRLDPLPVLGTHRSSHRCLPWDLAPWRELNNGRTLTLFDLGRAPLLVRTGMQRICSEKGWGMTVAGSSVRYRRRVVLMERLEMVSRCLGWDGRFFYMEQSLWRKGDCTSHMLLRAATTTGSGIVPPAEVAAALGAGESPPLPDWAQAWIEADALRPWPPAALEHHHHHH | failed
4 | MIMEHEYRLEVRGYELDSFGHVNNAVYLNYLEAARWDLCSKLNLTDYNESNELFIVVIETNIKYIRELKLFDKVLIKTELTYEDDYLIFKHNIYNEVTKRKASVAKSKMVLVSKQRIIYEIPQFIKDKLDICAYGLEHHHHHH | failed
5 | MNRSDKWQQRVAQVAYRFNQQYQNQSLELPAEVQEMPIYREWISGILAGKIASPFWEMAQPQKNQHCLDIGCGVSFLIYPWRDWQAFFYGQDVSNVARDTLNSRGSQLNSKLFKGVELGAAHQLKYTLSYFDLAIATGFSCYFPLEYWTSVLQAVKRVLKPDGHFVFDILNAAHPQAEDWAVLETYLGAEVFLEPVTEWEKIINAAGAKVVGRQPGEFFDLYKLRLEHHHHHH | failed
6 | MLDNHDLIVSSVEKNSPAWDAGLTTEDVIVAIDGLRLLDNELDNRLKDFKPKQTITVTYFRRDKLITSRLKLAAIPKNKLKIIPIAKASVLEHHHHHH | not failed
7 | MLKSQEIRQKAPELDSLRLGSGWKSEELNKAQIIIESSFGHSHPGSAHLDTLVDEAFKSIDDNGGRGAKYFVTDICDGETQGHDGMNYSLASRDIMTNLMEIHVQATPFDAGIFIASCDKAVPAHLMAIARLDMPSILVPGGIMNAGPNMLTLEQIGTYNAQYERGEITKEQYEHYKQNACPSCGACSFMGTASTMQVMSEALGIALPGTALIPVTSKELKLAAKNAGKQILKLIELNIKPSEIMTKKAFENAIMVHAAIAGSSNCLLHIPAIAHELGMDIEPELFDEIHKKIPYILNIRPSGFYPGSYFWNAGGVPAIMEEIKEFLHLDVMTVTGKTLGENLEDLKNSGYYEEHDKLITSLGIKKEDVIRTKENPIQSQGAIAILKGNLAPGGAVVKHSAISKKLMQVVLKARVFNCEEDAIKSVLTKNIKPGDAVFVRYEGPKGSGMPEMFYTTEAIASDHELVDSTALITDGRFSGATRGPAIGHVSPEASEGGPIAFVQEGDLIKIDIPARKLDIIGTNGIEKSEKEIENILKERSQNWVKPAPRYTKGILGLYTRCASSPMKGGYME | failed
8 | MLTPVADGVLVHQSELLRNNTVVVRGESGVLIVDPGLTTGEMGCLAEDLRQLGQPVVAGFATHPDWDHALWHADLGDVPRYGTARCSAYLRELRSEEGWQARVAEGLPPEIADETPLELFGLIVGLPAGAELIPWNGPEVRVIEHPAHAPGHAALLVEDRGVLVAGDMLSDLFVPMLDDTEHPVEDYLTGLRLLEKVADDVEVLVPGHGSVATADQVQVRIGRDREYLHALRDGRAPDDPRLGSSVEPGWEWVNDIHEGQAARMARRSERNGADG | failed
9 | MYLPLLMALVVALSSCSNKMGALSSDYFTTTPQVLEAVGGKVPVTINGKFPEKYFKKNAVVEVTPVLKWEGGQVKGQPAVFQGEKVEGNDQTISYKMGGNYTMKTTFDYVPEMAKSELYLEFNAKVGKKTIAIPAVKIADGVISTSELINNTLSSANPALGDDAFQRIIKEAHNANIMFLIQQANIRSSELKTAKEFNKEVANVNDAENKKISNIEISAYASPDGGVKLNTGLAENREGNTTKLINKDLKKAKIEVPVDAKYTAQDWEGFQELVSKSNIQDKELILRVLSMYQDPEQRETEIKNISSVYKTLADEILPQLRRSRLTLNYEIIGKSDEEIANLAATDPKQLNVEEILYAATLTNDPAKKADIYTKASQQFPNDYRAFNNLGKLAYQAGDLDKAQSYVKKAESIKSAPEVNMNLGLIALAKGDKAAAESYLGKAAGAKELNETLGNLYVAQGQYERAVNAFGDTKTNSAALAQILAKDYNKAKNTLAGIATPDAYTDYLMAVLGARTNNTSMLTSSLKSAVAKNPALAKKAATDLEFAKYYTNADFMSIVK | failed
10 | MAYREKDTKKWTAQWFETNVMGEKKKRRKRGFETKREALEFERSKKLSNERSMDMKLSDFIEIYFSDKQNDLKDRTIKNKRYMMQQHIVPYFGNQMMSEIKASQIIQWQNEIQKKGYSDSYLRMIQNQLTSLFTHAAKIYDLPVNPCKKVKRMGNSDSRSLNFWTLDEYKQFIQTMEPGTRYYLMFEMLFWTGCRIGELLAITKADINFEKNQLSINKTYYRTGMQDIITEPKTKQSFRTIEIPEFLKEEIKEFVDGHYGMPDTERLFPVVQEAVQHKMKRQIELAGVKKIRVHDIRHSHVAYLIEKGVEPLLIRDRLGHKDIRITLNTYGHLYPNQQRKIANLLDNENGNAVTGLGEERDEC | failed
11 | MTKSVDTLLIPGPIILSGAVQKALDVPSLGHTSPEFVSIFQRVLKNTRAVFKSAAASKSQPFVLAGSGTLGWDIFASNFILSKAPNKNVLVVSTGTFSDRFADCLRSYGAQVDVVRPLKIGESVPLELITEKLSQNSYGAVTVTHVDTSTAVLSDLKAISQAIKQTSPETFFVVDAVCSIGCEEFEFDEWGVDFALTASQKAIGAPAGLSISLCSSRFMDYALNDSKNGHVHGYFSSLRRWTPIMENYEAGKGAYFATPPVQLINSLDVALKEILEEGLHKRWDLHREMSDWFKDSLVNGLQLTSVSRYPSNMSAHGLTAVYVADPPDVIAFLKSHGVVIAGGIHKDIGPKYIRIGHMGVTACNKNLPYMKNCFDLIKLALQRKK | not failed
12 | MDFYQFAEYIVLNYGYFGIFLIAFTEAVIQPILPDIFIIGASAFGLDSVTCALVASFGSLTGGYTGYFLGKKLGTNVFLKIFKEKYFIKGKAFFEKFGVWGVAIAGFTPIPYKVFAWLAGIFKMNLVSFGAGTLLGRIPRFLLVAYFGYSLGLLFGLHTP | failed
13 | MELKDIMHILEDMKVGVFATLDEYGNPHARHAHITAANEEGIFFMTSPETHFYDQLMGDQRVAMTAISEEGYLIQVVRVEGTARPVENDYLKTVFADNPYYQHIYKDESSDTMQVFQIYAGHGFYHSLTQGHKYIFSIGQGEHSEVRAL | not failed
14 | MISGFSMHSSAHYRQLLARLPQIAVAADQFEVLNSAKDFKSRILSLIASARQRIYLVALYLQDDEAGREILSALYAAKQRNPALDVKVFVDFHRAQRGLIGKGKQGGNHLMYQEMAARHEHQIAIYGVPVKGRELLGVLHLKGFIFDDTLLYSGASLNDIYLHQQDRYRFDRYHQITSPELTRSMVNYVDDLFLRSEAVQRLDRTDIPSAKQLKGPIRRFKHNLRLGQYRFDTMPVNSQEVAITPMSGLGKRGNQLNKMIRTLVRATEREIFICTPYFNPPKELNKDIEALLKRGCKVTIVVGDKTANDFFIPPEEKFSTIGGLPYLYETNLRKFAERNQHHIDAGRLNLMLWCCERNSYHLKGIFVDDEWALLTGNNLNPRAWALDLENGLLVYDRRHLLRPQFNAERENILANTKRISHFDQIEQIQDYPDQVRKLLARIHRVKAHILLKRII | failed
15 | MRNDLFNREKSRQLSLTPRTEKIEVKHVGKTDPGTVFVMNKNISTPYSCAMHLSEWYCSKSILALVDGQPWDMYKPLTKSCEIKFLTFKDPDPREVNKAYWRSCAMMLGCVIERAFKDDYVVSLLRAPEVPVIAGAFCYDVTLDKRLDEWMPTKENLRSFTKDAHALIYRDLPFETLDVDARVALEIFQHNKYKVDFIEEKASQNPERIVKLHRIGDFIDVSEGPLIPRTSVCFQYEVSAVHNLNPSQPNLIRRFQGLSLPTHLRAQFTIWDKLVGRSRKMVTEDEVRQTENTESTQ | failed
16 | MGLKQTLKEIYYIVADKRLLYFSLSLGISTFAYSLLTYYFPIIMTNLDITTFTIGIIYSIISFLYVVFNIPLGAIVDKIGSKNAVTLSALMAVPLFLLMGTLNPLLFIISLVIFESVIRIVNSLGAHRFMLNYTNAGKAFGVFSLITSILAAIGIMLGGYLLQHSVSTLLFTIIAVLFGISGIIRFLELPKDENKVEVKRSLRLGFKYLKEDKKLLLYLLVSILSSGLSLETYYVTIYFVKDLLLPLTFVGVLYSSYALIMAFLPLLFSVILSKRSNFKNLSILIFSNSVIFFLVPLFTNVYILFLLFYAWTVIVAMESIVDYNVAQSVTKPEIRGTQVALISTFVRIFSVFYNAIVGLLFQITPLYSFYFTGFLGILAIFTIKFAEFIGVLK | failed
17 | MVIGVPKEIKTLENRVALTPGGVESLVRRGHTVLVERGAGEGSGLSDAEYARAGAELVGREEAWGAEMVVKVKEPLPEEYGFLREGLILFTYLHLAADRGLTEAMLRSGVTGIAYETVQLPDGTLPLLVPMSEVAGRMAPQVGAQFLEKPKGGRGVLLGGVPGVAPASVVILGGGTVGTNAAKIALGMGAQVTILDVNHKRLQYLDDVFGGRVITLTATEANIKKSVQHADLLIGAVLVPGAKAPKLVTRDMLSLMKEGAVIVDVAVDQGGCVETIRPTTHAEPTYVVDGVVHYGVANMPGAVPRTSTFALTNQTLPYVLKLAEKGLDALLEDAALLKGLNTHKGRLTHPGVAEAFGLPYTPPEEALRG | not failed
18 | MKQPTAVIFDWYNTLIDTSINIDRTTFYQVLDQMGYKNIDLDSIPNSTIPKYLITLLGKRWKEATILYENSLEKSQKSDNFMLNDGAIELLDTLKENNITMAIVSNKNGERLRSEIHHKNLTHYFDSIIGSGDTGTIKPSPEPVLAALTNINIEPSKEVFFIGDSISDIQSAIEAGCLPIKYGSTNIIKDILSFKNFYDIRNFICQLINI | not failed
19 | MRRSAYMTDTKICKKGCDHDTSHRENEQRCGRGSFWMHDPDLIFSELKLKAGEFFLDMGCGPGDYSIWASKIVGNSGMVYALDKWQELIDNLTEKADLEGIKNIKGMVSDIARPLPIEESCIDVYFISTVLHSLDLAKDSDVIFSEIHRVLKPDGRLAIVECKKEEMSFGPPLHMRLSPEELENLIAKYGFEKINLVDLGYNYMIQFRKSYQK | failed
